Results: US20160031998A1 (CSL, published 2016)
Residue numbers refer to the chain shown, from its start.

T1: soluble hG-CSFR: amino acids 25-335 of Homo sapiens G-CSFR with mutations C78A, C163S and C228S and a … (Homo sapiens, UniProt Q99062 25-335)
T1 chain: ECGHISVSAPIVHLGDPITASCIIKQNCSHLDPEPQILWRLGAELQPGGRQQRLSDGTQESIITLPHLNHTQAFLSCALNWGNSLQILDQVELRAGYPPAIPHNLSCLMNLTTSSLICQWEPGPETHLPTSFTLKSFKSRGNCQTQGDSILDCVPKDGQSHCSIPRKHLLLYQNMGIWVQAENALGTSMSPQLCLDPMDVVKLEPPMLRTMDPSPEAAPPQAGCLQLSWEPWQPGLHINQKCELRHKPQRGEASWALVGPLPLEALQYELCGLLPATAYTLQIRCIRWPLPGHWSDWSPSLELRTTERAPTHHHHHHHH

T2: human G-CSFR expressed on cells (Homo sapiens, UniProt Q99062 25-836)
T2 sequence: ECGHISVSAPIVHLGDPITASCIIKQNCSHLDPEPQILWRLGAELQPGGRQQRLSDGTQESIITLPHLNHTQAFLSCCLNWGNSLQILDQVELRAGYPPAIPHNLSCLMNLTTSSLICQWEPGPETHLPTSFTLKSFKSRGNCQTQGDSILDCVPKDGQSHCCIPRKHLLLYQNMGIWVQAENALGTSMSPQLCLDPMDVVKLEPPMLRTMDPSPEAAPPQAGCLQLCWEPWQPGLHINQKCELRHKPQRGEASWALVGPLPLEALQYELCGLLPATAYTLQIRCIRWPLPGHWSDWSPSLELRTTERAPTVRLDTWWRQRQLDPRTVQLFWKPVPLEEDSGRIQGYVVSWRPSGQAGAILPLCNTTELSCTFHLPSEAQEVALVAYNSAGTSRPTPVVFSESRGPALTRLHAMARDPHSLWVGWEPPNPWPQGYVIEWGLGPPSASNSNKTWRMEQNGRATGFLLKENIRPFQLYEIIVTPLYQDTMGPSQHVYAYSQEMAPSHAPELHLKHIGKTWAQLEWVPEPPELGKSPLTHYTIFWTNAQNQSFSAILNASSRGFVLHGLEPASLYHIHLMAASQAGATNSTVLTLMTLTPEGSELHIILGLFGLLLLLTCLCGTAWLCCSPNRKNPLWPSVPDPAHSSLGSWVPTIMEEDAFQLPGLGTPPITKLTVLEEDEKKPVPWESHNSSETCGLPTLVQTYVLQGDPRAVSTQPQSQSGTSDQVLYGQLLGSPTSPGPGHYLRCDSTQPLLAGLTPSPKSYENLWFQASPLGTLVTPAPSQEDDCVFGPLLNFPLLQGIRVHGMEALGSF

B1: C1.2G-44 (antibody, human IgG4, V domains shown)
VH: EVQLLESGGGLVQPGGSLRLSCAASGFTFSLYWMGWVRQAPGKGLEWVSSISSSGGVTPYADSVKGRFTISRDNSKNTLYLQMNSLRAEDTAVYYCAKLGELGWFDPWGQGTLVTVSS
VL: DIQMTQSPSSLSASVGDRVTITCRASQGISSYLNWYQQKPGKAPKLLIYYASNLQNGVPSRFSGSGSGTDFTLTISSLQPEDFATYYCQQSYSYPQKFGGGTKVEIK
notes: HCDR3 wt (VH of C1.2G); also called antibody 44
B2: C1.2G-987 (antibody, human IgG4, V domains shown)
VH: B1 VH with W104Q, F105S, D106S, P107A
VL: B1 VL with Y92I, S93Q, K97M
notes: also called antibody 987
B3: C1.2G-969 (antibody, human IgG4, V domains shown)
VH: B1 VH with W104Q, F105Y, D106Q, P107F
VL: B1 VL with Y92F, S93Q, P95A, K97H
notes: also called antibody 969
B4: C1.2G-994 (antibody, human IgG4, V domains shown)
VH: B1 VH with W104Q, D106M, P107D
VL: B1 VL with Y92L, S93E, K97M
notes: also called antibody 994
B5: C1.2G-973 (antibody, human IgG4, V domains shown)
VH: B1 VH with W104Q, F105M, D106V, P107Y
VL: B1 VL with Y92F, S93K, Q96M, K97T
notes: also called antibody 973
B6: C1.2G-989 (antibody, human IgG4, V domains shown)
VH: B1 VH with W104Q, F105Y, D106M, P107F
VL: B1 VL with Y92F, S93Y, Q96F, K97Y
notes: also called antibody 989
B7: C1.2G-43 (antibody, human IgG4, V domains shown)
VH: B1 VH with W104Q, D106M, P107R
VL: B1 VL with Y92I, S93G, Q96G, K97S
notes: also called antibody 43
B8: C1.2G-1003 (antibody, human IgG4, V domains shown)
VH: B1 VH with W104S, F105G, D106S, P107T
VL: B1 VL with Y92W, S93H, Q96L, K97T
notes: also called antibody 1003
B9: C1.2G-996 (antibody, human IgG4, V domains shown)
VH: B1 VH with W104Q, F105Y, D106M, P107G
VL: B1 VL with Y92M, S93W, Y94M, Q96I, K97F
notes: also called antibody 996
B10: C1.2G-54 (antibody, human IgG4, V domains shown)
VH: B1 VH with W104M, D106L, P107E
VL: B1 VL with Y92M, S93W, Y94M, Q96M, K97G
notes: also called antibody 54
B11: C1.2G-1000 (antibody, human IgG4, V domains shown)
VH: B1 VH with W104Q, F105M, D106M, P107Y
VL: B1 VL with Y92W, S93M, P95A, Q96H, K97M
notes: also called antibody 1000
B12: C1.2G-999 (antibody, human IgG4, V domains shown)
VH: B1 VH with W104M, D106H, P107K
VL: B1 VL with Y92W, S93E, P95A, Q96M, K97F
notes: also called antibody 999
B13: C1.2G-1002 (antibody, human IgG4, V domains shown)
VH: B1 VH with W104M, F105Y, D106M, P107N
VL: B1 VL with Y92W, S93T, P95G, K97T
notes: also called antibody 1002
B14: C1.2G-977 (antibody, human IgG4, V domains shown)
VH: B1 VH with W104E, F105I, D106R, P107E
VL: B1 VL with Y92W, S93V, P95H, Q96L, K97P
notes: also called antibody 977
B15: C1.2G-967 (antibody, human IgG4, V domains shown)
VH: B1 VH with W104M, F105Y, P107L
VL: B1 VL with Y92W, S93A, P95G, Q96L, K97S
notes: also called antibody 967
B16: C1.2G-986 (antibody, human IgG4, V domains shown)
VH: B1 VH with W104F, D106Q, P107E
VL: B1 VL with S93A, K97Q
notes: also called antibody 986
B17: C1.2G-975 (antibody, human IgG4, V domains shown)
VH: B1 VH with W104Q, F105S, D106M, P107L
VL: B1 VL with Y92W, S93Q, Y94I, P95K, Q96L
notes: also called antibody 975
B18: C1.2G-984 (antibody, human IgG4, V domains shown)
VH: B1 VH with W104M, F105M, D106Q, P107S
VL: B1 VL with Y92I, S93E, Q96A, K97H
notes: also called antibody 984
B19: C1.2G-79 (antibody, human IgG4, V domains shown)
VH: B1 VH
VL: B1 VL with Q90V, Y92W, S93E, Q96L, K97T
notes: HCDR3 wt (VH of C1.2G); also called antibody 79
B20: C1.2G-814 (antibody, human IgG4, V domains shown)
VH: B1 VH
VL: B1 VL with Q89S, Y92M, S93E, Q96L, K97T
notes: HCDR3 wt (VH of C1.2G); also called antibody 814
B21: C1.2G-852 (antibody, human IgG4, V domains shown)
VH: B1 VH with W104H, F105S, D106L, P107A
VL: B1 VL with Y94T, Q96L, K97T
notes: LCDR3 wt (VL of C1.2G); also called antibody 852
B22: C1.2G-877 (antibody, human IgG4, V domains shown)
VH: B1 VH
VL: B1 VL with Y92F, S93R, Q96F, K97Y
notes: HCDR3 wt (VH of C1.2G); also called antibody 877
B23: C1.2G-75 (antibody, human IgG4, V domains shown)
VH: B1 VH
VL: B1 VL with Q89E, Q90E, Y92M, S93N, Q96L, K97T
notes: HCDR3 wt (VH of C1.2G); also called antibody 75
B24: C1.2G-870 (antibody, human IgG4, V domains shown)
VH: B1 VH
VL: B1 VL with Y92W, S93M, P95H, Q96K, K97I
notes: HCDR3 wt (VH of C1.2G); also called antibody 870
B25: C1.2G-97 (antibody, human IgG4, V domains shown)
VH: B1 VH
VL: B1 VL with Y92F, S93M, Q96L, K97Y
notes: HCDR3 wt (VH of C1.2G); also called antibody 97
B26: C1.2G-56 (antibody, human IgG4, V domains shown)
VH: B1 VH
VL: B1 VL with S93M, Q96I
notes: HCDR3 wt (VH of C1.2G); also called antibody 56
B27: C1.2G-77 (antibody, human IgG4, V domains shown)
VH: B1 VH
VL: B1 VL with Q89E, S91G, Y92W, S93N, Q96L, K97T
notes: HCDR3 wt (VH of C1.2G); also called antibody 77
B28: C1.2G-63 (antibody, human IgG4, V domains shown)
VH: B1 VH
VL: B1 VL with Q89A, Q90N, Y92W, S93G, Q96L, K97T
notes: HCDR3 wt (VH of C1.2G); also called antibody 63
B29: C1.2G-83 (antibody, human IgG4, V domains shown)
VH: B1 VH
VL: B1 VL with Y92W, S93M, P95A, Q96L, K97F
notes: HCDR3 wt (VH of C1.2G); also called antibody 83
B30: C1.2G-802 (antibody, human IgG4, V domains shown)
VH: B1 VH
VL: B1 VL with Q89H, Q90F, Y92M, S93Q, Q96L, K97T
notes: HCDR3 wt (VH of C1.2G); also called antibody 802
B31: C1.2G-94 (antibody, human IgG4, V domains shown)
VH: B1 VH
VL: B1 VL with Y92W, S93V, Q96A, K97W
notes: HCDR3 wt (VH of C1.2G); also called antibody 94
B32: C1.2G-95 (antibody, human IgG4, V domains shown)
VH: B1 VH
VL: B1 VL with Y92W, S93E, Q96L, K97V
notes: HCDR3 wt (VH of C1.2G); also called antibody 95

Target: T1, soluble hG-CSFR: amino acids 25-335 of …
Assay: SPR (Biacore), mAb captured by anti-human IgG, soluble hG-CSFR injected
Procedure: Soluble hG-CSFR was injected for 5 minutes and dissociation was monitored for 30 minutes. Responses from a reference flow cell (in which mAb was not captured, but otherwise treated identically), were subtracted. The responses from a blank injection were then subtracted from the resultant sensorgrams.
The final corrected responses were fitted using non-linear regression to a model describing 1:1 kinetics, including a term for mass transport limitation. The Rmax value was fitted locally, to account for slight deviations in the level of mAb captured. Association rate (ka), dissociation rate (kd) and equilibrium dissociation constant (KD) were determined.

Kd | Binder
0.0733 nM | B1
0.0446 nM | B2
0.181 nM | B3
0.17 nM | B4
0.23 nM | B5
0.144 nM | B6
0.336 nM | B7
0.0682 nM | B8
0.336 nM | B9
0.11 nM | B10
0.182 nM | B11
0.356 nM | B12
0.167 nM | B13
0.246 nM | B14
0.134 nM | B15
0.0911 nM | B16

Kd | Binder
0.209 nM | B17
0.25 nM | B18
0.0613 nM | B19
0.221 nM | B20
0.292 nM | B21
0.508 nM | B22
0.211 nM | B23
0.367 nM | B24
0.0906 nM | B25
0.0993 nM | B26
0.107 nM | B27
0.161 nM | B28
0.066 nM | B29
0.111 nM | B30
0.189 nM | B31
0.0578 nM | B32

These binders were tested against T2, human G-CSFR expressed on cells (assay: cell-based or functional assay).

IC50 (nM), inhibition of G-CSF-mediated proliferation of BaF3 cells | Binder
0.39 nM | B1
0.88 nM | B2
0.41 nM | B3
0.49 nM | B4
0.34 nM | B6
0.26 nM | B8
0.5 nM | B10
0.34 nM | B11
0.18 nM | B13
0.29 nM | B15
0.28 nM | B16
0.31 nM | B19
0.21 nM | B25
0.22 nM | B26
0.23 nM | B27
0.26 nM | B28
0.21 nM | B29
0.26 nM | B30
0.26 nM | B32
